Laboratory results published in PMC13185593.

Tested on: HuR
Assay: SPR
Details: SPR: 25 mM Tris pH 7.5, 100 mM KCl, 7 mM b-mercaptoethanol, 10% glycerol, 25 C, UV crosslinking: 5 mM HEPES pH 7.6, 25 mM KCl, 2 mM MgCl2, 3.8% glycerol

SARS-CoV-2 5'-UTR WT, biotin (SPR) gave a Kd of 32.5 nM.
